Assay: soluble on expression in E. coli; label from the status in PepcDB or PDB records

| Sequence | soluble on expression in E. coli |
| --- | --- |
| SFQGQRGWFCGSVSQDLRQFWVAEGGTISDPRAADFLFSCDASHPDTLRIYQSLDYIEDNATVFHAYYLSAVANAKIKNSVALGHFILPPACLQKEIRRKIGSFIWEQDQHFLIEKHDEVTPNEIKTLRENSELATEHKKELSKSPEKHFIRTPVVEKQMYFPLQNYPVNNMVTGYISIDAMKKFLGELHDFIPGTSGYLAYHVQNEINMSAIKNKLKRK | soluble |
| MKTLIARHKAGEHIGICSVCSAHPLVIEAALAFDRNSTRKVLIEATSNQVNQFGGYTGMTPADFREFVFAIADKVGFARERIILGGDHLGPNCWQQENVDAAMEKSVELVKAYVRAGFSKIHLDASMSCAGDPIPLAPETVAERAAVLCFAAESVATDCQREQLSYVIGTEVPVPGGEASAIQSVHITHVEDAANTLRTHQKAFIARGLTEALTRVIAIVVQPGVEFDHSNIIHYQPQEAQALAQWIENTRMVYEAHSTDYQTRTAYWELVRDHFAILKVGPALTFALREAIFALAQIEQELIAPENRSGCLAVIEEVMLDEPQYWKKYYRTGFNDSLLDIRYSLSDRIRYYWPHSRIKNSVETMMVNLQGVDIPLGMISQYLPKQFERIQSGELSAIPHQLIMDKIYDVLRAYRYGCAE | soluble |
| SLSAPIRVLVVDDHVLSRRELEVALAAEADIEVVGSAVNSPAAVTLGSESRPDVALVDVEEPHEDGIRAVSAIKRAVSPVRILILATSDDEAHLFGAVRAGAVGYLLKPRPMDELTAAVRSVHNGVSIIGPGVASQVMKEFAAMARSEKSPAMPHLTVRELDVLKLMVGGCANQGISRRLLISENTVKNHIRNILEKLQFSAWEG | soluble |
| MTKENICIVFGGKSAEHEVSILTAQNVLNAIDKDKYHVDIIYITNDGDWRKQNNITAEIKSTDELHLENGEALEISQLLKESSSGQPYDAVFPLLHGPNGEDGTIQGLFEVLDVPYVGNGVLSAASSMDKLVMKQLFEHRGLPQLPYISFLRSEYEKYEHNILKLVNDKLNYPVFVKPANLGSSVGISKCNNEAELKEGIKEAFQFDRKLVIEQGVNAREIEVAVLGNDYPEATWPGEVVKDVAFYDYKSKYKDGKVQLQIPADLDEDVQLTLRNMALEAFKATDCSGLVRADFFVTEDNQIYINETNAMPGFTAFSMYPKLWENMGLSYPELITKLIELAKERHQDKQKNKYKIDRSHHHHHH | soluble |
| MGSDKIHHHHHHMWLSSEFNRMAEKTFKAYEPDDAFFSTLLYGPEGVGKSTLLVKCCQRLKEKKTILYIDAQDFVKNYAFAAQEGTLSQFRLRLRTPGVLIMDHIEVLKGKTRSIEEFYHTYEALFQRNGRIICGFRGDPSQLGFLGEKLSSRLRGGLVVPILQPTPEDMLNYLRQMAYGKFLIVEDLVLELMAEEAANFPEAQSLMNGFIQFANRTDSALDHDALLLYLQERRYQEGLRPSPQNIIQKVAELTGVAAAAIYSTTRTPEVRQARQLAIYGIRSLSRLSYPEIGASLNKSHSSIMKSYQQFQEAVQKNPELREMLESLVKYFNSPDDEKTER | not soluble |
| MKLTGQAIDGFLRKPDPKIRCVLVYGPDEGLVRERLEQLARTVVADPKDPFRITDLSGDDLRADPARLADEAAALAFGGGRRLVRLRQMTDQHAPRLKAFVEAPVGEALVLVQGGDLTARSALRKLFEGASAAAALPCYADEGRSLETLVRATLAEARLAAAPEVIDYLVANLGGDRGVSRSELAKLVTYCGKATSVSLDDALACVGDSAQIGLDMLTNAVAEGDSATALRALDRLGQEGMATVALLRGLTRHFTRLHLVAGLIAGGTSVDQALAALKPPVMFKLAPRFRSQVQRWSAERLAQALDLLLDAEIDAKSSGLPERALVERLLLRLARGAKTASRLEHHHHHH | not soluble |
| SLCHVTRPDAVVMEIEVDAKANGEDCLNKVCRKLGIIEVDYFGLQFSGSKGENLWLNLRNRISQQMDNLTPCRLRLRVKFFVEPHLILQEQTRHLFFMHVKEDLHRGHLRMCSEQAQELSALLAQAEFGDYNQNTAKYWYTELCGSEPNQTTINSIIAKHKALEGLSQASVEYQALQLVSSLEHYGVEWHWARDAEAQRLAIGVGPEGIAICRDDFSLVNRISYPIIQIATQSGKSVYLTVTKESSDSVVLLFKLISN | soluble |
| MFFKKNLTTAAICAALSVAAFSAMATDSTDTELTIIGEYTPGACTPVVTGGGIVDYGKHHNSALNPTGKSNKLVQLGRKNSTLNITCTAPTLIAVTSKDNRQSTIVALNDTSYIEKAYDTLVDMKGTKNAFGLGSAPNGQKIGAASIGIDRSNGGIHAADDTGEIPVDLIQTDHWSAATPTWKASSNGAFCSLTSCSAIERGYSVAKTGELTPVAITAVTFPLLIDAAVNDNTILGSDETIKLDGNVTISVQYL | not soluble |
| MQHLDLQVVRKALKWSVGGERVWFCTVLTTYGSAPRAPGSLLAVNASGEWIGSLSGGCVEDDFLERVAAGGFPDPAVIVRYGEGDDPNSNIRLPCGGILDVLVENLAPDCDVQAHLRELESALLGQRRLLREVELGSGARSLRDDSSHGPRAERDGECVRLRVGAAQRLLLAGYSSVAHACAEFGKGLGFEVILCDPREEALRGVVLEGIEIRRELPSLFIADGGCHADTAVVALTHDPKIDDLAMLEAVRTEAFYIGVMGSRATSEKRFERLRRIGGLGDAELARIHAPIGLNLGSKTPAEIALAVLADILRIRNGIPRERL | not soluble |
| MGSDKIHHHHHHMMENFPKPVVVVSKCLGFDSCRYNGDIIDAPFVDKLRSHVTFVPVCPEVEIGLGVPRKPIRIVSDKGITTLYQPATGKDFTGTMRSFVDDFLGSLTEVDGFLLKNRSPSCGVGDVKIHAGFDEGARMFRGSGFLGGAVLERFAGLPVEDEGRIRNFTIREHFLTRLFLFARFREVKKSGSMRGLVDFHSLQKLLLMGYNQAQMRLLGKIVANHEKADWNTMITRYEEQLKRALANPPRFTAMINVLLHAFGGFSNVLAKEEKAFFLDLIEEYRDERIPLSALLQVLRGWSIRFRNDYLLGQTFLQPYPGQLSKITDSGKGREP | not soluble |
| MKKTLPKTEAPSSVGNGSDSPIEFDAIIRQVPDMDAAYVEIPFDVKTVYGKGRVRVNATFDGYPYTGYIVRMGLPCHILGLRQDIRRAIGKQPGDSVYVTLLPL | soluble |
| MGYHTFDAGRADKLEDAQERYRSLSAEELCWALSASSDETVADLGSGTGFYTDDVAPAVDHVYAVDIQEAMHDYYRKKGVPDNVDLVTSAVDDLPFDTSSLDAAFSTMTYHEFASDGALREVARVLKPGGTFAIADWAASGSGRNGPPVDERFSAAEATDALRQHGFTVEFEAVRPETFLLVVSADLEHHHHHH | soluble |
| MMSISQLLGCISKQVDGQYIAQYEELTLRSVFQPIYKKDLSIIGLEALVRISTADGSMIRPDLFFQSPSISEHVQLNVERLSRLIHIKNFGQSRYRNKKLFLNVLPRAAEMLAKDLSYSHLLKQVICEADLCREQIVMELVELSAGDESFLYKATKELSDGGFKLAIDDYGINASTIERVKCVRPDIIKMDRSLLLKYEDGDFSALIEALALAKELSSKTVIEGIETEHQLNLMKKLGFDMYQGYLLAMPQTLEMYEEAKTA | not soluble |
| MSLGKTLFDKLWNRHVIYGKEGEPQLLYVDLHLIHEVTSPQAFEGLRMENRPLRRPDKTFATMDHNVPTEDIFNIQDLVAKKQIEALQTNCEEFGVTLADMGSDRQGIVHMVGPETGLTQPGKVIVCGDSHTATHGAFGAIGFGIGSSEVEHVFATQTIWQQKPKSMGIEINGNLPKGVYAKDIILHLIATYGVAFGTGYAVEYYGETIRNMSMEERMTICNMAIEGGAKMGMMAPDETTFEYVRGREYAPADMDKAISDWKTLQTDPDAEYDLHIKMDASILEPYVTWGTNPEMGVPFSKAFPEIKDMNYERAYEYMGLKPGQTAEEIELGYVFIGSCTNARLSDLEEAARIVKGNKVKNNIRALVVPGSRQVRNAAESIGLDKIFIEAGFEWREPGCSMCLGMNPDQVPDGVHCASTSNRNFEGRQGKGARTHLVSPAMAAAAAINGHFIDIRKEAVISGGNEGHHHHHH | not soluble |
| HFNVLADTPSGLVPLHLRSPQVPAAQQMLNFPEKNKEKPVDLQNFGLRTDIYSKKTLAKSKGASAGREWTEQETLLLLEALEMYKDDWNKVSEHVGSRTQDECILHFLRLPIEDPYLENSDASLGPLAYQPVPFSQSGNPVMSTVAFLASVVDPRVASAAAKAALEEFSRVREEVPLELVEAHVKKVQEAARASGKVDPTYGLESSCIAGTGPDEPEKLEGAEEEKMEADPDGQQPEKAENKVENETDEGDKAQDGENEKNSEKEQDSEVSEDTKSEEKETEENKELTDTCKERESDTGKKKVEHEISEGNVATAAAAALASAATKAKHLAAVEERKIKSLVALLVETQMKKLEIKLRHFEELETIMDREKEALEQQRQQLLTERQNFHMEQLKYAELRARQQMEQQQHGQNPQQAHQHSGGPGLAPLGAAGHPGMMPHQQPPPYPLMHHQMPPPHPPQPGQIPGPGSMMPGQHMPGRMIPTVAANIHPSGSGPTPPGMPPMPGNILGPRVPLTAPNGMYPPPPQQQPPPPPPADGVPPPPAPGPPASAAP | soluble |
| MSLTLRQAIDLAAALLAEAGVDSARCDAEQLAAHLAGTDRGRLPLFEPPGDEFFGRYRDIVTARARRVPLQHLIGTVSFGPVVLHVGPGVFVPRPETEAILAWATAQSLPARPLIVDACTGSGALAVALAQHRANLGLKARIIGIDDSDCALDYARRNAAGTPVELVRADVTTPRLLPELDGQVDLMVSNPPYIPDAAVLEPEVAQHDPHHALFGGPDGMTVISAVVGLAGRWLRPGGLFAVEHDDTTSSSTVDLVSSTKLFVDVQARKDLAGRPRFVTAMRWGHLPLAGENGAIDPRQRRCRAKREGHHHHHH | soluble |
| MGSDKIHHHHHHMALGHRVKEAREFRSLKQGELAELIGWTQQALSTLENRDSKKSSYSAQISKALDIDIDWLISGAGEMINTKKEAKSAKKLIKYVPVKGSAQMGDNGFWSELDYMGAGGDGYLEVNNASDSAYVIRAVGDSMFPAIRSGWYIVFDPSREACSGEYVHIVLKDGRNMVKEYVSCQHGIVNLISVNGMERISFNCEDVDVLNPFVEIQPPSRLRDDLDLFDTKCEEM | not soluble |
| MDALVIRNPELLADALRGLSQSPKRMEPKWFYDAEGSALFERITELPEYYPTRTETAILTAGADRLAAHVPEGAELVELGSGASVKTRLLLDRLTGLSAYVPVDISASFLKETARALARDYPDLPIHPVVADFTKPLRLADEGHPRVGFFPGSTLGNLDPEGARALMRGVRDWPGIRGFIVGIDLIKDEDTLVRAYDDAAGVTAAFNLNLLHRMNREIGADFDPDRFAHRAIWNAEKARIEMHLESLEDQEVQIGPRRIRFRAGETIHTENSHKFSATSFAERAAEAGWRLADFLTDARRQFGVAVLEPA | not soluble |
| SMPNHQKVVLVGDGAVGSSYAFAMAQQGIAEEFVIVDVVKDRTKGDALDLEDAQAFTAPKKIYSGEYSDCKDADLVVITAGAPQKPGESRLDLVNKNLNILSSIVKPVVDSGFDGIFLVAANPVDILTYATWKFSGFPKERVIGSGTSLDSSRLRVALGKQFNVDPRSVDAYIMGEHGDSEFAAYSTATIGTRPVRDVAKEQGVSDDDLAKLEDGVRNKAYDIINLKGATFYGIGTALMRISKAILRDENAVLPVGAYMDGQYGLNDIYIGTPAIIGGTGLKQIIESPLSADELKKMQDSAATLKKVLNDGLAELENK | soluble |
| MKEELIERFTRYVKIDTQSNEDSHTVPTTPGQIEFGKLLVEELKEVGLTEVTMDDNGYVMATLPANTDKDVPVIGFLAHLDTATDFTGKNVKPQIHENFDGNAITLNEELNIVLTPEQFPELPSYKGHTIITTDGTTLLGADDKAGLTEIMVAMNYLIHNPQIKHGKIRVAFTPDEEIGRGPAHFDVEAFGASFAYMMDGGPLGGLEYESFNAAGAKLTFNGTNTHPGTAKNKMRNATKLAMEFNGHLPVEEAPEYTEGYEGFYHLLSLNGDVEQSKAYYIIRDFDRKNFEARKNTIENIVKQMQEKYGQDAVVLEMNDQYYNMLEKIEPVREIVDIAYEAMKSLNIEPNIHPIRGGTDGSQLSYMGLPTPNIFTGGENYHGKFEYVSVDVMEKAVQVIIEIARRFEEQA | not soluble |
